The experiment has as its target putative EMR2 ligand. Kind of experiment: flow cytometry on human monocyte-derived macrophages; abolished by EGTA. On the technique in general: In flow cytometry, cells or beads pass a laser one at a time.

From patent US20030148951A1 come the findings set out here.

In the case of “biotinylated soluble EMR2(EGF-1,2,3,4,5) protein-fluorescent bead complex (from UniProt Q9UHX3 24-260) (receptor)”, the percent of cells bound lay in the range of 45 to 50%.
